According to paper PMC2246632:
Positions count from the first letter of the chain named.

B1: native CDEIII probe (dsDNA)
DNA 1: AAATATTAGTGTATTTGATTTCCGAAAGTTAAA
DNA 2: TTTAACTTTCGGAAATCAAATACACTAATATTT
B2: site 1 mutant (dsDNA)
DNA 1: B1 DNA 1 with C22G, C23A, G24T
DNA 2: B1 DNA 2 with C10A, G11T, G12C
B3: native CDEIII competitor (dsDNA)
DNA 1: B1 DNA 1
DNA 2: B1 DNA 2
B4: site 2 mutant (dsDNA)
DNA 1: B1 DNA 1 with T10A, G11A, T12C, A13T
DNA 2: B1 DNA 2 with T21A, A22G, C23T, A24T

Tests used:
[1] = biological target: Cep3Δ (lacks zinc cluster) (Saccharomyces cerevisiae, UniProt P40969 48-608); experiment: EMSA
Sequence of Cep3Δ (lacks zinc cluster) (P40969 48-608, stated change not applied): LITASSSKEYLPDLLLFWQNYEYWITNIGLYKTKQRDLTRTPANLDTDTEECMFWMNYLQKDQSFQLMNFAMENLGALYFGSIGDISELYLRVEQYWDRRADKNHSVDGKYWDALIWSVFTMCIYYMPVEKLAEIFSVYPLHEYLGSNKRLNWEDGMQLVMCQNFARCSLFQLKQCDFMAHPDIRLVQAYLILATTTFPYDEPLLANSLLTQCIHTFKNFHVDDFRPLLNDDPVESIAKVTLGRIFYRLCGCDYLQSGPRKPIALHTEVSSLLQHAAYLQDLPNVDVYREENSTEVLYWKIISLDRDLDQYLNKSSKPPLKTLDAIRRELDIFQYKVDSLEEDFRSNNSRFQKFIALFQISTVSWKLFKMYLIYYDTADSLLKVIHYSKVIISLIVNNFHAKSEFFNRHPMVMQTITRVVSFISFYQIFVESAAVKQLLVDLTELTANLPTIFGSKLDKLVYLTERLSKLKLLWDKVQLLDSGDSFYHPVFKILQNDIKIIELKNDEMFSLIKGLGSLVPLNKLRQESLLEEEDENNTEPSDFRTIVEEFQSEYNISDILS

[2] = biological target: T1, Cep3 (Cep3 1-608, full-length) (Saccharomyces cerevisiae, UniProt P40969 1-608); experiment: EMSA
T1 sequence (P40969 whole entry): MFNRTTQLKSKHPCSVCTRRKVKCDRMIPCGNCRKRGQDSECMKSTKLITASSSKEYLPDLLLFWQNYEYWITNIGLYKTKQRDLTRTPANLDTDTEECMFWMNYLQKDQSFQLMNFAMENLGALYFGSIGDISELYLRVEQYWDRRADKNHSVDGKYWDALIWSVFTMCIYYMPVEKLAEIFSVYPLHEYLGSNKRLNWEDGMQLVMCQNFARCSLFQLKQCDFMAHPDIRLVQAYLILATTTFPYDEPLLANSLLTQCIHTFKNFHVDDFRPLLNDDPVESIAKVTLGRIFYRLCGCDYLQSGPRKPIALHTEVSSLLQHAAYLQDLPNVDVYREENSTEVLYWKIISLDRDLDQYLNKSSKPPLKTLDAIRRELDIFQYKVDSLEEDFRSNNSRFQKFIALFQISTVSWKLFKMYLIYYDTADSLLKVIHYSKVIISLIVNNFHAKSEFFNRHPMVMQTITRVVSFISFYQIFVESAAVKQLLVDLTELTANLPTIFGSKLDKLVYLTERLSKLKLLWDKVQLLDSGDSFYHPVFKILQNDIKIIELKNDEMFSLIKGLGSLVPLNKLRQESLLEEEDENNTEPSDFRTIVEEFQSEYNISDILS

[3] = biological target: T1, Cep3 (Cep3 1-608, full-length); experiment: competition

| Binder | binding result [1] | binding result [2] | binding result [3] |
| --- | --- | --- | --- |
| B1 | no binding | binds |  |
| B2 |  |  | no binding |
| B3 |  |  | binds |
| B4 |  |  | binds |
